Data published in patent publication US7108990B2, “Chemokine receptor” (ChemoCentryx, Inc., priority 1999, dated 2006).
Entries after “also recorded” stand apart in the source; their conditions may differ. Blank lines part the entries; values can stand above or below the molecule they belong to.

Legend:
CCX CKR [1] = target: T1, CCX CKR (Homo sapiens, UniProt Q9NPB9); assay: Radioligand binding competition (DisplaceMax) to CCX CKR stable transfectants with Scatchard transformation
T1 construct: Full length CCX CKR expression constructs were made in pIRESpuro expression vector; expressed in transfected cells
T1 sequence (Q9NPB9 1-350): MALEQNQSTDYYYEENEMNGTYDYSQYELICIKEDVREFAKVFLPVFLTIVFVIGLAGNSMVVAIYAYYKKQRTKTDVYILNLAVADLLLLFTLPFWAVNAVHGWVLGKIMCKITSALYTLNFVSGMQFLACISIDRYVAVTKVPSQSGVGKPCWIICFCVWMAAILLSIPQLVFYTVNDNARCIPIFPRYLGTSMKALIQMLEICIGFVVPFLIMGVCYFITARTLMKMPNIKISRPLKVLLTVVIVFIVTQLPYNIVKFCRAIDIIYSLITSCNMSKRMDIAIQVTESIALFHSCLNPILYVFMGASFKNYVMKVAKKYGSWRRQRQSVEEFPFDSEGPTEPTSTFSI
Text: In one embodiment, binding is detected as described by Dairaghi et al., 1997, J. Biol. Chem. 272:28206–209 (incorporated by reference in its entirety for all purposes) substituting CCX CKR transfectants for the CCR3 transfectants). In one embodiment, binding is detected using the filter based technique described by Dairaghi et al., 1999, J. Biol. Chem. 274:2156 (incorporated by reference in its entirety for all purposes), e.g., as shown in FIG. 4. Briefly, this technology employs expanded, efficiency-maximized radioligand binding utilizing filtration protocols. In these assays, 1×10^5 CCXCKR-293 HEK cells are incubated with ^125I-labeled ELC (MIP3beta) (final concentration of ˜0.05 nM) in the presence of unlabeled chemokine for 3 h at 4° C. in 25 mM HEPES, 140 mM NaCl, 1 mM CaCl2, 5 mM MgCl2, and 0.2% bovine serum albumin, adjusted to pH 7.1. Reactions were aspirated onto PEI-treated GF/B glass filters using a cell harvester (Packard). Filters are washed twice (25 mM HEPES, 500 mM NaCl, 1 mM CaCl2 5 mM MgCl2, adjusted to pH 7.1) and scintillant (e.g., MicroScint 20; 50 μl) is added to dried filters and counted (e.g., using a Packard Topcount scintillation counter). The competition dose-response curves is analyzed by standard methods to determine IC50 values (e.g., using GraphPad Prism software (San Diego, Calif.)). Additionally, a Scatchard transformation can be used to estimate the receptor sites per cell (e.g., using WaveMetrics Igor software (Lake Oswego, Oreg.)).
(§1) Binding analysis was carried out using efficiency-maximized radioligand binding utilizing filtration protocols designated “Displace Max” (Dairaghi et al., 1999, J. Biol. Chem. 274:21569). In these assays, DisplaceMax employed the simultaneous interrogation of CCX CKR transfectants by >80 distinct purified chemokines in the ability to displace radiolabeled ELC or TECK, using the protocol described (Dairaghi et al., 1999, J. Biol. Chem. 274:21569).
The binding interactions identified in the primary screen were examined quantitatively by extensive radioligand binding competition to CCX CKR stable transfectants and Scatchard transformation of the displacement data (FIG. 4B). […] In each case, the murine versions of these chemokines also bound, and with even greater affinity; the apparent Kd's are listed in FIG. 4B. […] In similar experiments, murine CTACK bound the receptor with a Kd of ˜9 nM (not shown). CTACK is also referred to as CCL27, ALP, ILC, and ESkine.

CCX CKR [2] = target: T1, CCX CKR; assay: Ligand binding fingerprint: cold chemokines competing against 125I-ELC on CCX CKR stable transfectants; settings: cold competitor at 200 nM; human and murine chemokines
Text: In order to rapidly and thoroughly define a given chemokine receptor's ligand binding fingerprint, we have established an approach to comprehensively profile chemokine receptors using a large array of purified chemokines and chemokine variants. We used this approach to confirm independently the interaction of ELC and other chemokines with CCX CKR. Employing radioligand binding of ^125-labeled-ELC or ^125-TECK to CCX CKR stable transfectants, chemokine specificity for the new receptor was determined.
as §1

CCX CKR [3] = target: T1, CCX CKR; assay: Adhesion of HEK293-CCX CKR cells to immobilized stalkokines and competition by soluble chemokines; format: cell-based; settings: soluble recombinant chemokine 5–10 ug/ml
Text: “Stalkokine” technology was used to identify the chemokines bound by the CCX CKR. Briefly, immobilized native chemokines alone are incapable of capturing cells bearing cognate receptors (Imai et al., 1997, Cell 91:521). We have developed non-native chemokine structures, stalkokines, comprising chemokine moieties engineered as N-terminal attachments to extended modified mucins (Bazan et al., 1997, Nature 385:640). In one embodiment, stalkokines, harvested in the supernatants of HEK293 cells after transient transfection, are anchored to solid substrates via antibodies against carrier domains (e.g. poly-His epitopes) engineered to the carboxyl terminus, leaving the chemokine domain free to interact with candidate orphan receptors.
To determine ligand binding to CCX CKR, HEK293-CCX CKR cells were used to interrogate chemokine ‘stalkokines’ (SK), i.e., molecules in which discrete chemokine domains were engineered to be tethered to the end of an extended stalk structure. Stalkokines were interrogated using 8-well chamber slides coated first with anti-His anchoring antibody (10 ug/ml in PBS overnight at RT), which were washed and ‘blocked’ (2% FBS/0.5% BSA in PBS); treated with 250 ul of HEK293 cell stalkokine supernatants (1 hr at 37 C), and incubated with 500,000 HEK293-CCX CKR transfectants (1.5 hrs at RT). Inhibition of adhesion by competition with soluble chemokines was done by incubating cells with 5–10 ug/ml of recombinant chemokines. In all cases, nonadherent cells were removed by washing in PBS; remaining adherent cells were fixed with 1% glutaraldehyde, photoimaged and counted. As a primary screen this adhesion would reveal putative receptor-ligand interactions.

CCX CKR [4] = target: T1, CCX CKR; assay: Preliminary chemotaxis analysis of CCX CKR transfectants; format: cell-based; settings: preliminary chemotaxis analyses
CCX CKR [5] = target: T1, CCX CKR; assay: Ligand induced internalization of Flag-CCX CKR in 293 cells (FACS); format: cell-based; settings: 100 nM chemokine, 37° C., 15 or 45 minutes, 293 F-CCR10 cells
Protocol: 293 cells transfected with the Flag-CCX CKR fusion plasmid (i.e., “293 F-CCR10 cells;” see Example 3) were incubated at 37° C. with varying concentrations of chemokines (ELC, SLC, TECK, murine CTACK and MCP-4) for 15 or 45 minutes. Following incubation, the cells were washed and fixed with 3% paraformaldehyde for 15 minutes on ice. The cells were stained with anti-Flag M1 antibody, followed by a PE-conjugated anti-mouse secondary antibody. FACS analysis were then carried out to determine surface expression of the receptor.
Results: A reduction in antibody binding in the presence of ligand is an indication of ligand-induced internalization of the receptor.

CCX CKR [6] = target: T1, CCX CKR; assay: Homologous competition binding assay with radiolabeled chemokine on HEK293-CCX CKR cells; settings: HEK293-CCX CKR cells versus wildtype HEK293 cells
Text: Furthermore ELC-SK mediated adhesion was abolished in the presence of soluble native ELC as a competitor (FIG. 3A, top row). […] Moreover, radiolabeled ELC was used in a traditional homologous competition assay in the presence of increasing concentrations of unlabeled ELC. […] Taken together, the stalkokine-based adhesion and radiolabeled ligand binding/homologous competition assays indicate that CCX CKR is a new chemokine receptor that bound a novel compliment of chemokines.

- affinity of binding to CCX CKR, in words (CCX CKR [1]): high affinity
- competition with 125I-labeled ELC binding to CCX CKR (fingerprint) (CCX CKR [2]): bound well
- migration of CCX CKR transfectants in response to chemokine (CCX CKR [4]): moderate migration
- binding in homologous competition of radiolabeled with unlabeled chemokine (CCX CKR [6]): significant binding
Molecule: ELC: EBI1 ligand chemokine, recombinant
- effect of soluble chemokine on ELC-SK mediated adhesion of HEK293-CCX CKR cells (CCX CKR [3]): abolished; also recorded: ablation of adhesion
- internalization of CCX CKR (CCX CKR [5]): Internalization of the receptor was observed

- affinity of binding to CCX CKR, in words (CCX CKR [1]): high affinity
- competition with 125I-labeled ELC binding to CCX CKR (fingerprint) (CCX CKR [2]): bound well
- migration of CCX CKR transfectants in response to chemokine (CCX CKR [4]): moderate migration
B1: SLC: secondary lymphoid-tissue chemokine, recombinant (protein)
chain: SDGGAQDCCLKYSQRKIPAKVVRSYRKQEPSLGCSIPAILFLPRKRSQAELCADPKELWVQQLMQHLDKTPSPQKPAQGCRKDRGASKTGKKGKGSKGCKRTERSQTPKGP
- effect of soluble chemokine on ELC-SK mediated adhesion of HEK293-CCX CKR cells (CCX CKR [3]): significant reduction; also recorded: ablation of adhesion
- internalization of CCX CKR (CCX CKR [5]): Internalization of the receptor was observed
